What was measured:
Assay in all cases: Crosslinking/co-immunoprecipitation/mass spectrometry (TMT quantitative proteomics) to identify irisin receptors
Type in all cases: binding
[1] = biological target: T1, MLO-Y4 cell surface proteins (Mus musculus, UniProt P52825); conditions: co-precipitated protein Cpt2 (CPT2_MOUSE)
T1 construct: endogenous in cells; host or cells: MLO-Y4
T1 sequence (P52825 26-658): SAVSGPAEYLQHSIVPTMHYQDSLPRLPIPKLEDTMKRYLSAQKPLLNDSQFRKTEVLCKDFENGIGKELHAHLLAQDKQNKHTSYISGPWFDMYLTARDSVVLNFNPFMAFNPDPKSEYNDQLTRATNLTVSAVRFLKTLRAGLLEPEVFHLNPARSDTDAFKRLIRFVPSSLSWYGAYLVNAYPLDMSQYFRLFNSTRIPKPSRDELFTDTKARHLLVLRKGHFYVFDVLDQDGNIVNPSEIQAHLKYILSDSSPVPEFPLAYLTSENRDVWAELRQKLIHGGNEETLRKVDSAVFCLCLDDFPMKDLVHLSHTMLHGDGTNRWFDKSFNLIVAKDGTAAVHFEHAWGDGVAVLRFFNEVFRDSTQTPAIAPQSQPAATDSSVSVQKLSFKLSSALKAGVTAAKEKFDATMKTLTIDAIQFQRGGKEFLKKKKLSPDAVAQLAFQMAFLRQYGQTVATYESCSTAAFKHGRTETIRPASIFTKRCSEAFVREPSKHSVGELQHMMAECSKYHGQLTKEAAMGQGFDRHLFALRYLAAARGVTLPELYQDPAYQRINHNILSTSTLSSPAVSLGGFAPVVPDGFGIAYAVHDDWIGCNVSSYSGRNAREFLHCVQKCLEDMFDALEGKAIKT
How it was run: (§1)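 Relative protein abundance came from 6-plex TMT MS3 quantitation on an Orbitrap Fusion Lumos, after in-gel trypsin digestion of Coomassie-stained SDS-PAGE lanes. Input was a Ni-NTA pulldown (250 mM imidazole elution) of lysates from murine MLO-Y4 cells. These cells were treated on ice with His-tagged irisin or adipsin (10 nM, 20 min) in serum-free medium, then crosslinked with 1.5 mM DTSSP for 30 min.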

[2] = biological target: T2, MLO-Y4 cell surface proteins (Mus musculus, UniProt Q8BFT2); conditions: co-precipitated protein Haus4 (HAUS4_MOUSE)
T2 construct: endogenous in cells; host or cells: MLO-Y4
T2 sequence (Q8BFT2 1-363): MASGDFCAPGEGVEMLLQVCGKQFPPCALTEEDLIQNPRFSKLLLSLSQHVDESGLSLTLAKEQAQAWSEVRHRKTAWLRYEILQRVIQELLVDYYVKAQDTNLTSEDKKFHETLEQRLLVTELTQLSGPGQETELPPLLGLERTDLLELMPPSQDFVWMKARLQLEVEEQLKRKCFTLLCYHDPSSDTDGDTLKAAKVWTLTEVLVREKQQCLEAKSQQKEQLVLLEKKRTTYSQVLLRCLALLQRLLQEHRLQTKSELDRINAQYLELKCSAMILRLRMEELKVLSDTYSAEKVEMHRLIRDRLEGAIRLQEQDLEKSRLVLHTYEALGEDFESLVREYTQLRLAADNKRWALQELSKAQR
How it was run: as §1

[3] = biological target: T3, MLO-Y4 cell surface proteins (Mus musculus, UniProt Q9Z138); conditions: co-precipitated protein Ror2 (ROR2_MOUSE)
T3 construct: endogenous in cells; host or cells: MLO-Y4
How it was run: as §1

T3 sequence (Q9Z138 34-944): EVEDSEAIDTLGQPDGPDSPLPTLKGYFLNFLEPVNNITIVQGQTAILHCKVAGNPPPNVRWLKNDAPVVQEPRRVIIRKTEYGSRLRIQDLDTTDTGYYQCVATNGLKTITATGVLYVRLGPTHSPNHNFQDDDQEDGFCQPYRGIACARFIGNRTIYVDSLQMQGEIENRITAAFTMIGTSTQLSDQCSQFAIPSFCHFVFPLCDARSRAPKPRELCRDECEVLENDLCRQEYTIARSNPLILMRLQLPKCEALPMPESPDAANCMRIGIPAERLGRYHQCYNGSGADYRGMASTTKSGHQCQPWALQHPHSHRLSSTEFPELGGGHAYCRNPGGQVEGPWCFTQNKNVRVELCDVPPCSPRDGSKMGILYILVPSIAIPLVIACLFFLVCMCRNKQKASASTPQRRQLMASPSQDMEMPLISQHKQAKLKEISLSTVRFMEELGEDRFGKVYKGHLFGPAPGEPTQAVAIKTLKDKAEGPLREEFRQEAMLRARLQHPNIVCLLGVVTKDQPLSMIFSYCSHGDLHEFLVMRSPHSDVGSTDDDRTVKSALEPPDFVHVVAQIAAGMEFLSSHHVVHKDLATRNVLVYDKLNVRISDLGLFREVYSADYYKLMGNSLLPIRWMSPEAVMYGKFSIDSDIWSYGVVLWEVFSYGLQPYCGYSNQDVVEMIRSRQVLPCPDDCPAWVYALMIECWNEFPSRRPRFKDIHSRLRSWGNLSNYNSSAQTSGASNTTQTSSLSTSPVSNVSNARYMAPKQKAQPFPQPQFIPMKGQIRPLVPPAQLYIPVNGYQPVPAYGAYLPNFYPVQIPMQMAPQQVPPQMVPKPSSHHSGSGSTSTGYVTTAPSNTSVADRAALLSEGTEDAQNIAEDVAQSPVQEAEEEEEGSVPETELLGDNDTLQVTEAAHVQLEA

B1: irisin: secreted cleaved form of FNDC5; recombinant human/mouse irisin with C-terminal his tag produced in HEK293 cells (protein)
chain: DSPSAPVNVTVRHLKANSAVVSWDVLEDEVVIGFAISQQKKDVRMLRFIQEVNTTTRSCALWDLEEDTEYIVHVQAISIQGQSPASEPVLFKTPREAEKMASKNKDEVTMKE
modifications: left off: small tags and cut ends
notes: secreted cleaved form of FNDC5; recombinant human/mouse irisin with C-terminal his tag produced in HEK293 cells
TMT signal-to-noise ratio [1]: 96.8301 | irisin/adipsin TMT signal-to-noise ratio [1]: 0.545 | TMT signal-to-noise ratio [2]: 230.984 | irisin/adipsin TMT signal-to-noise ratio [2]: 0.446 | TMT signal-to-noise ratio [3]: 39.5932 | irisin/adipsin TMT signal-to-noise ratio [3]: 0.585

From US20210063414A1, “METHODS FOR PREVENTING AND/OR TREATING BONE LOSS CONDITIONS BY MODULATING IRISIN” (Dana-Farber Cancer Institute, Inc., priority 2018, published 2021)
